Drawing on patent US20220062373A1 (published 2022), this text covers Kd for one molecule.

The target in this test is T1, Recombinant human CD206 (MRC1/CD206) (human, UniProt P22897 19-1383).
T1 chain: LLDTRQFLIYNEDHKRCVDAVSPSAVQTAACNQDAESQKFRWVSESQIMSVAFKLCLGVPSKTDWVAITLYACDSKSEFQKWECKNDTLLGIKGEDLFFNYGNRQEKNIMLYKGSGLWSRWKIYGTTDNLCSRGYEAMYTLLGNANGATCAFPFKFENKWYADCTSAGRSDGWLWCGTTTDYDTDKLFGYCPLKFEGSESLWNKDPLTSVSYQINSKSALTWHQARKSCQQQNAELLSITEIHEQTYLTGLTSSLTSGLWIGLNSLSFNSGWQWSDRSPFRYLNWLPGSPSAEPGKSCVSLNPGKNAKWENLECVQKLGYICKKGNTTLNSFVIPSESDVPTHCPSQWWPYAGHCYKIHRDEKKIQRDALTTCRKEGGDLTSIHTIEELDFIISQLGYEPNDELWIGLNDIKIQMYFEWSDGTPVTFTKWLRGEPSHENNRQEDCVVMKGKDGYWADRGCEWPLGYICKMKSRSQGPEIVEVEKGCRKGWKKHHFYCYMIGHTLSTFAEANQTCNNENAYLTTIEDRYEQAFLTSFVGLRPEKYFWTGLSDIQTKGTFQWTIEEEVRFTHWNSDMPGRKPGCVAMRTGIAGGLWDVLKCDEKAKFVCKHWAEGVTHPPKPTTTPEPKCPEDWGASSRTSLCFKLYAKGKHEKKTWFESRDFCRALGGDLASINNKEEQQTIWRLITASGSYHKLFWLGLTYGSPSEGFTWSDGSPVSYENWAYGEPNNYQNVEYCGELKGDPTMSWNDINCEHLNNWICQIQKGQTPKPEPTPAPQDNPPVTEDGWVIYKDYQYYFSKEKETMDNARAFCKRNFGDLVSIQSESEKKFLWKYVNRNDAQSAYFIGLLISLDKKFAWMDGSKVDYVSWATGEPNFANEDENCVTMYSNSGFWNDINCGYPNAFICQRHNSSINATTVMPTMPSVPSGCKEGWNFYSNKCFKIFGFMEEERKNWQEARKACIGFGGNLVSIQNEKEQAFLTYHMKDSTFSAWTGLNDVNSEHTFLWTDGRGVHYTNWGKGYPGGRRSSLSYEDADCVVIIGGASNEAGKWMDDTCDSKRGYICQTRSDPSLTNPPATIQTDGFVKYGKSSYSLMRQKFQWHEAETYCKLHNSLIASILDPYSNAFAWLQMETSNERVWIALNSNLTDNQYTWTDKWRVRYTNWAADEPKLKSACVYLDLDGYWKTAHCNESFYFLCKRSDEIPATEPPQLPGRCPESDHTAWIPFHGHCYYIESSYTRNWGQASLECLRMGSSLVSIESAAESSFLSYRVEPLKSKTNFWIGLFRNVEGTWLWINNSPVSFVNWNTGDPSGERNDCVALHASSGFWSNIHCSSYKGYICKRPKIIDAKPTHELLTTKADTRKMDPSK
Put plainly: MST.

Broadly, the Kd is the concentration at which binding is half-saturated. As to KFRKAFKRFF [RP-182], the dissociation constant Kd came to 8.37 µM.
